Where a chain is given by its changes, count along the chain named. Some results are limits rather than exact numbers.

T1: hBCMA ECD hFc (ACRO, BC7-H5254) (human, UniProt Q02223 1-54)
T1 chain: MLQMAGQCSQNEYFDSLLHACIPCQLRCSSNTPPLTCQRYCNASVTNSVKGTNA

T2: hu (human) BCMA ECD His (ACRO, BCA-H522y) (human, UniProt Q02223 1-54)
T2 chain: T1 chain

B1: R0317 (C11D5.3 BCMA mouse monoclonal antibody) (antibody, V domains shown)
VH: QIQLVQSGPELKKPGETVKISCKASGYTFTDYSINWVKRAPGKGLKWMGWINTETREPAYAYDFRGRFAFSLETSASTAYLQINNLKYEDTATYFCALDYSYAMDYWGQGTSVTVSS
VL: DIVLTQSPASLAMSLGKRATISCRASESVSVIGAHLIHWYQQKPGQPPKLLIYLASNLETGVPARFSGSGSGTDFTLTIDPVEEDDVAIYSCLQSRIFPRTFGGGTKLEIK
B2: 5E2 (antibody, V domains shown)
VH: EVQLQQSGPELIKPGASVKMSCKASGYTFTSYVVHWVKQKPGQGLEWIGYIIPYNDDTKYNEKFKGKATLTSDKSSSTAYMELSSLTSEDSAVYYCARWDYDDGYFDYWGQGTTLTVSS
VL: DVVMTQTPLSLPVTLGDQASISCRSSQSLLHSNGNTYLHWYLQKPGQSPKLLIYKVSNRFSGVPDRFSGSGSGTDFTLKISRVEAEDLGVYFCSQITHIPFTFGSGTKLEIKR
B3: 5F4 (antibody, V domains shown)
VH: EVQLQQSGPELIKPGASVKMSCKASAGKWERWAHWVKQKPGQGLEWIGYKPAYWTSAYNEKFKGKATLTSDKSSSTAYMELSSLTSEDSAVYYCATLDYDDGYFDYWGQGTTLTVSS
VL: EIVLTQSPGTLSLSPGERATLSCRASQSVSSSYLAWYQQKPGQAPRLLIYQASSDATGIPDRFSGSGSGTDFTLTISRLEPEDFAVYYCQQYGYPPSYTFGQGTKVEIK
B4: hu VH2-VL1 (antibody, V domains shown)
VH: QVQLVQSGAEVKKPGASVKMSCKASGYTFTSYVVHWVRQAPGQGLEWIGYIIPYNDDTKYNEKFKGRVTLTSDKSTSTAYMELSSLRSEDTAVYYCARWDYDDGYFDYWGQGTTVTVSS
VL: DVVMTQSPLSLPVTLGQPASISCRSSQSLLHSNGNTYLHWYLQKPGQSPQLLIYKVSNRFSGVPDRFSGSGSGTDFTLKISRVEAEDVGVYFCSQITHIPFTFGQGTKLEIK
B5: hu VH1-VL3 (antibody, V domains shown)
VH: B4 VH with R67K, V68A, T76S
VL: DIVMTQTPLSLSVTPGQPASISCKSSQSLLHSNGNTYLHWYLQKPGQPPQLLIYKVSNRFSGVPDRFSGSGSGTDFTLKISRVEAEDVGVYYCSQITHIPFTFGQGTKLEIKR
B6: hu VH1-VL2 (antibody, V domains shown)
VH: B4 VH with R67K, V68A, T76S
VL: B4 VL with S7T, P12S, L15P, R24K
B7: hu VH1-VL1 (antibody, V domains shown)
VH: B4 VH with R67K, V68A, T76S
VL: B4 VL

One test concerns the target T1, hBCMA ECD hFc (ACRO, BC7-H5254). Description: BLI (Fortebio). A general note: BLI is a label-free optical method that tracks binding on a fibre tip over time.
In the case of B1, the Kd – broadly, the equilibrium constant for the complex coming apart – is below 0.001 nM. The same measure, in the same setting: the same measure for B2: below 0.001 nM; for B3: below 0.001 nM.

A further test has the same target. Kind of test: ELISA. In general terms: An ELISA detects its analyte on a solid surface through an enzyme-linked reagent.
For the molecule B1, the EC50 (as a rule, the midpoint of the concentration-response curve) was found to be 0.32 nM.

B2: the EC50 turned out to be 0.279 nM.

For the molecule B3, the midpoint of the response, the EC50, lay at 0.305 nM. This EC50 and that of the molecule before are within 1.5-fold of each other.

The next test has as its target T2, hu (human) BCMA ECD His (ACRO, …). Description: ELISA.
Molecule B2 returned an EC50 of 0.054 nM. Same read-out and setting: the same measure for B4: 0.0506 nM; for B5: 0.0545 nM. Same read-out and setting: the same measure for B6: 0.0206 nM; for B7: 0.0474 nM.

The values above are taken from patent publication US20230039487A1 (published 2023).
